From patent US20250051468A1 (INNOLAKE BIOPHARMA HANGZHOU, published 2025) come the findings set out here.

Residue numbers refer to the chain shown, from its start.

To fix the notation:
T1: human OX40 expressed on cells (293T-OX40, Jurkat-OX40) (human, UniProt P43489 29-277)
T1 sequence (looked up): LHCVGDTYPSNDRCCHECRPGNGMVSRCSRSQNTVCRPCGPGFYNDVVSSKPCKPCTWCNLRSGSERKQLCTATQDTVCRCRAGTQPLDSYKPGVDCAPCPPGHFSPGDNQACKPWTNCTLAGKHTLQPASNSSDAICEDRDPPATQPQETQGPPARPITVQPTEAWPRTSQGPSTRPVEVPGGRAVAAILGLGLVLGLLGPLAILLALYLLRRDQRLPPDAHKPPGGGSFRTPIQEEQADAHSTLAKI

T2: OX40-ECD-hFc (human, UniProt P43489 29-214)
T2 construct: extracellular domain; Coated on the ELISA plate; also called OX40-hFc protein; not shown: human Fc (hFc)
T2 sequence (looked up): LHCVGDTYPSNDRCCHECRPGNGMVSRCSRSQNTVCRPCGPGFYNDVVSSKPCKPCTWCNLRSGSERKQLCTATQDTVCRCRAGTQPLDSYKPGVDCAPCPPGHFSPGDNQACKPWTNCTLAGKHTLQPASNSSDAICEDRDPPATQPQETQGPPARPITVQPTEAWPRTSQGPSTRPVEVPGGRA

B1: murine OX40 hybridoma antibody 177G5 (antibody, V domains shown)
VH: EVQLVESGGGLVKPGGSLKLSCAASGFTFSDFYMYWVRQTPEKRLEWVATISDGGSYTYYPDIVKGRFTISRDNAKNNLNLQMSSLKSDDTAMYYCTTKNGNHIGFAYWGQGTLVTVSA
VL: DIQMTQSPASLSVSVGETVTITCRASENIYSNLAWYQQKQGKSPQLLVYAATNLADGVPSRFSGSGSGTQYSLKINSLQSEDFGSYYCQHFWGIPWTFGGGTKLEIKR
notes: Purified murine monoclonal hybridoma antibody
B2: murine OX40 hybridoma antibody 3G4 (antibody, V domains shown)
VH: EVQLQQSGPELVKPGTSVKMSCKASGYRFTSYVLHWVRRKPGQGLEWIGYVNPFNDNTRYNEKFKAKATLTSDKSSSTAYMDLVSLTSEDSAVYYCSRGLYDYSYVMDYWGQGTSVTVSS
VL: DIQMTQTTSSLSASLGDGVTITCQASQDIRNYLNWYQQKPDGTIKLLIYHTSKLHSGVPSRFSGGGSGTDFSLTISNLDQEDIATYFCQQSQTLPYTFGGGTKLEIKR
notes: as for B1
B3: murine OX40 hybridoma antibody 1G2 (antibody, V domains shown)
VH: EVQLQQSGPDLVKPGASVKMSCKASGYRFTSYVMHWVKQRPGQGLEWIGYINPYNDNTRYNEKFKGKATLTSDKSSSTAYMELSSLTSEDSAVYYCAAYYGDYVYLDYWGQGTTLTVSS
VL: DIQMTQTTSSLSASLGDRVTISCRASQDINNYLNWYQQKPDGTVKLLIYYTSRLHSGVPSRFSGSGSGTDYSLIISNLEQEDIATYFCQQGNTLPWTFGGGTKLEIKR
notes: as for B1
B4: murine OX40 hybridoma antibody 9G7 (antibody, V domains shown)
VH: EVKLVESGGGLVQPGGSLKLSCAASGFTFSDYYMYWVRQTPEKRLEWVAYISNGDISTYYPDTVKGRFTISRDNAKNTLYLQMSRLKSEDTAMYYCARDDGYSAWFAYWGQGTLVTVSA
VL: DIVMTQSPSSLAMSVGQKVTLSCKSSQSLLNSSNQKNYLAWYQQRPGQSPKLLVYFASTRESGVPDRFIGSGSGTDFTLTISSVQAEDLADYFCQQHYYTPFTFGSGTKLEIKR
notes: as for B1
B5: murine OX40 hybridoma antibody 118A10 (antibody, V domains shown)
VH: EVKLDETGGGLVQPGRPMKLSCVASGFTFSDYWLNWVRQSPEKGLEWVAQIRNKPYHYETFYSESVKGRFTISRDDSKSSVYLQMNDLRGEDTGIYYCTGYFDYWGQGTTLTVSS
VL: DIVLTQSPASLTISLGQRATISCRASQSVSTSTYSYIHWYQQKPGQPPRLLIKYASNLESGVPARFSGSGSGTDFTLNIHPVEEEDTATYYCQHSWGIPPTFGGGTKLEIKR
notes: as for B1
B6: murine OX40 hybridoma antibody 119H2 (antibody, V domains shown)
VH: B5 VH with E6A, L34M, H57N, E64D, D87N, G90A, T93M
VL: B5 VL with T12A, I13V, T33S, I37M, R49K
notes: as for B1
B7: humanized anti-OX40 antibody hu9G7-DE (antibody, V domains shown)
VH: EVQLVESGGGLVQPGGSLRLSCAASGFTFSDYYMYWVRQAPGKGLEWVAYISNGDISTYYPDTVKGRFTISRDNAKNSLYLQMNSLRAEDTAVYYCARDDGYSAWFAYWGQGTTVTVSS
VL: DIVMTQSPDSLAVSLGERATINCKSSQSLLNSSNQKNYLAWYQQKPGQPPKLLVYFASTRESGVPDRFSGSGSGTDFTLTISSLQAEDVAVYYCQQHYYTPFTFGQGTKLEIK
notes: Constructed as human IgG1 with constant region Ser239, Ala330 and Ile332 mutated to Asp, Leu and Glu; also called humanized antibody 9G7; combination C'
B8: humanized anti-OX40 antibody hu3G4-DE (antibody, V domains shown)
VH: QVQLVQSGAEVKKPGASVKVSCKASGYRFTSYVLHWVRQAPGQRLEWIGYVNPFNDNTRYNEKFKARATLTSDKSASTAYMELSSLRSEDTAVYYCSRGLYDYSYVMDYWGQGTLVTVSS
VL: DIQMTQSPSSLSASVGDRVTITCQASQDIRNYLNWYQQKPGKAPKLLIYHTSKLHSGVPSRFSGSGSGTDFTFTISSLQPEDIATYYCQQSNTLPYTFGQGTKLEIK
notes: Constructed as human IgG1 with constant region Ser239, Ala330 and Ile332 mutated to Asp, Leu and Glu; also called humanized antibody 3G4; combination B'
B9: humanized anti-OX40 antibody hu177G5-DE (antibody, V domains shown)
VH: QVQLVESGGGLVKPGGSLRLSCAASGFTFSDFYMYWIRQAPGKGLEWVATISDGGSYTYYPDIVKGRFTISRDNAKNSLNLQMNSLRAEDTAVYYCTTKNGNHIGFAYWGQGTTVTVSS
VL: DIQMTQSPSSLSASVGDRVTITCRASENIYSNLAWYQQKPGKAPKLLVYAATNLADGVPSRFSGSGSGTDYTLTISSLQPEDFATYYCQHFWGIPWTFGGGTKVEIK
notes: Constructed as human IgG1 with constant region Ser239, Ala330 and Ile332 mutated to Asp, Leu and Glu; also called humanized antibody 177G5; combination D'

In one test the target is T1, human OX40 expressed on cells …. Description: cell-based or functional assay.
As for B1, the “IC50 of reporter gene assay (NF-kB-luciferase, Jurkat-OX40 cells + OX40L)” value (“IC50 of reporter gene assay” for short) was found to be 0.253 µg/mL.

B2: the “IC50 of reporter gene assay” value was found to be 0.0361 µg/mL.

B3: the “IC50 of reporter gene assay” value came to 0.117 µg/mL.

For the molecule B4, the “IC50 of reporter gene assay” value was roughly 0.0361 µg/mL.

With B5, the “IC50 of reporter gene assay” value was determined as 0.198 µg/mL.

For B6, the “IC50 of reporter gene assay” value is 0.179 µg/mL.

For the next test the target is unchanged. Description: cell-based or functional assay. The source holds these as a separate data set.
Regarding B7, the “IC50 of reporter gene assay” value was determined as 0.0575 µg/mL.

In the case of B8, the “IC50 of reporter gene assay” value turned out to be 0.0181 µg/mL.

As for B9, the “IC50 of reporter gene assay” value turned out to be 0.309 µg/mL.

Another test has the same target. In words: cell-based or functional assay. This is another data set of the same source.
As for B7, the “EC50 of ADCC activity (LDH release, Jurkat-OX40 target cells + PBMC)” value (from here on “EC50 of ADCC activity”) was found to be 0.00143 µg/mL.

In the case of B8, the “EC50 of ADCC activity” value came to 0.00152 µg/mL.

For B9, the “EC50 of ADCC activity” value stood at 0.00236 µg/mL.

A further test shares this target. Description: FACS on 293T-OX40 cells. As to the method: (§1) (3) FACS Screening for Antibodies Binding to OX40-ECD. 50 μL of the hybridoma supernatant tested positive in the ELISA tests was pipetted and mixed with 50 μL of 293T-OX40 cells (1×10⁵ cells/well), and the mixture was added to a 96-well plate with a U-shaped bottom and incubated for 1 hour. After the mixture was centrifuged and washed twice with FACS buffer (PBS+3% FCS), PE-labeled goat anti-mouse secondary antibody (Biolegend, Cat. No.: 405307) diluted at 1:400 was added, the mixture was incubated for 30 minutes, and washed with FACS buffer, and then PE signal of 293T-OX40 cells was detected using a BD C6 flow cytometer.
(§2) The activity of the purified antibody sample to bind OX40 and block the binding of OX40 to OX40L was tested via ELISA and FACS. Specific methods are described in steps (2), (3) and (4) in Example 1. 6 monoclonal OX40 hybridoma antibodies 1G2, 3G4, 9G7, 177G5, 118A10 and 119H2 were tested. Test results are shown in Table 1 to Table 3 and FIGS. 1 to 3.
The EC50 is the concentration at which the effect is half-maximal. The low end stands for an effect from little substance, the high end for a need for much substance. In turn, B1 came in with an EC50 of 0.0499 µg/mL.

As to B2, a half-maximal effect (EC50) was put at 0.0537 µg/mL.

Take B3: the EC50 stood at 0.0805 µg/mL.

In turn, B4 displayed an EC50 of 0.0369 µg/mL.

Turning to B5, the EC50 was found to be 0.0735 µg/mL.

Regarding B6, the EC50 stood at 0.0413 µg/mL.

The next test shares this target. Description: FACS on 293T-OX40 cells. This is another data set of the same source. As to the method: as §1
Purified humanized antibody samples were tested for their binding to OX40 using FACS and for their ability to block the OX40L/OX40 signaling pathway using a reporter gene assay. The specific methods are referenced from Example 1. The results are shown in Table 6, Table 7, FIG. 7 and FIG. 8. The effects of the humanized antibodies on the function of primary T cells were tested, including an MLR response test of the inhibitory effect of the OX40 humanized antibody on the proliferation of CD4+ T cells, and a test of the inhibitory effect of the OX40 humanized antibody on the proliferation of CD8+ T cells induced by CEF.
In the case of B7, the EC50 amounted to 0.0623 µg/mL.

For the molecule B8, the midpoint of the response, the EC50, lay at 0.0713 µg/mL.

Molecule B9 registered an EC50 of 0.096 µg/mL.

In another test the target is T2, OX40-ECD-hFc. In words: ELISA, OX40-ECD-hFc coated on plate. How it is done: (2) ELISA Screening for Antibodies Binding to OX40-ECD. 96-well ELISA plate (Corning, Cat. No.: 9018) was inoculated with OX40-ECD-hFc, left at 4° C. overnight, and washed 3 times with wash buffer (PBS+0.05% Tween 20), then blocking buffer (PBS+1% BSA (Sigma, Cat. No.: V90093)) was added, and the 96-well ELISA plate was incubated for 1 hour and washed 3 times; hybridoma supernatant was added, the 96-well ELISA plate was incubated for 1 hour and washed 3 times; and 100 μL of goat anti-mouse IgG secondary antibody (Thermo, Cat. No.: 31432) diluted at 1:10000 was added to each well, and the 96-well ELISA plate was incubated at room temperature for 1 hour and washed 3 times. 100 µL of TMB (Biosubstrate Technologies, Cat. No.: ES-002) was added to each well and left for 3 minutes for color development, then a stop solution (2N H₂SO₄) was added at a dose of 100 μL/well to terminate the reaction, and the OD450 signal of each sample was measured with a Tecan Spark microplate reader.
as §2
(In an ELISA, binding on a coated surface is turned into a signal by an enzyme label.)
B1 showed an EC50 of 0.0215 µg/mL.

For B2, the EC50 came to 0.0163 µg/mL.

In turn, B3 gave an EC50 of 0.0157 µg/mL.

With B4, the EC50 is 0.0198 µg/mL.

B5: the EC50 is 0.0249 µg/mL.

For B6, the EC50 worked out at 0.023 µg/mL.
